Measurements reported in patent US20230136301A1, “Corticosteriod Reduction in Treatment with Anti-CD38 Antibody” (Janssen Biotech, Inc., priority 2021, published 2023).
Values joined by “and” are separate entries in the source; they are usually repeats but may differ in a detail not shown here. Equal values may be shown once.

Tested on: patients with RRMM
Assay: PAVO Part 3: treatment-emergent adverse events with DARA SC and corticosteroid tapering

## DARA SC: 1,800 mg daratumumab co-formulated with 30,000 U rHuPH20 (2,000 U/mL, 15 mL), manual subcutaneous injection
2-week taper n=15
  Vomiting, TEAE: 2 (13.3%) n (%)
2-week taper, general physical health deterioration
  Grade 5 TEAEs: 1 (6.7%) n (%)
3-week taper
  Grade ≥3 TEAEs, participants: 60%
  Nausea, participants: 53%
  Nervous system disorders: 46.7%
  Patients who died due to complications from DLBCL: One
  TEAEs with an outcome of death: No deaths
3-week taper n=15
  Anemia, any grade TEAE: 1 (6.7) n (%) and 1 (6.7%) n (%)
  Anemia, grade ≥3 TEAE: 1 (6.7) n (%) and 1 (6.7%) n (%)
  Any TEAE: 15 (100)^ n (%) and 15 (100.0%) n (%)
  Any grade ≥3 TEAE: 9 (60.0) n (%) and 9 (60.0%) n (%)
  Arthralgia, any grade TEAE: 3 (20.0) n (%) and 3 (20.0%) n (%)
  Asthenia, any grade TEAE: 1 (6.7) n (%) and 1 (6.7%) n (%)
  Back pain, TEAE: 1 (6.7%) n (%)
  Blood and lymphatic system disorders (SOC), TEAE: 4 (26.7%) n (%)
  Blood and lymphatic system disorders (SOC), grade 3 or higher TEAE: 3 (20.0%) n (%)
  Bone pain, TEAE: 2 (13.3%) n (%)
  Bone pain, grade ≥3 TEAE: 1 (6.7) n (%) and 1 (6.7%) n (%)
  Chills, TEAE: 2 (13.3%) n (%)
  Constipation, TEAE: 2 (13.3%) n (%)
  Cough, any grade TEAE: 3 (20.0) n (%) and 3 (20.0%) n (%)
  Decreased appetite, TEAE: 3 (20.0%) n (%)
  Diarrhea, any grade TEAE: 4 (26.7) n (%) and 4 (26.7%) n (%)
  Dizziness, any grade TEAE: 4 (26.7) n (%) and 4 (26.7%) n (%)
  Erythema, any grade TEAE: 2 (13.3) n (%) and 2 (13.3%) n (%)
  Fatigue, any grade TEAE: 4 (26.7) n (%) and 4 (26.7%) n (%)
  Gastrointestinal disorders (SOC), TEAE: 9 (60.0%) n (%)
  General disorders and administration site conditions (SOC), TEAE: 11 (73.3%) n (%)
  Headache, any grade TEAE: 5 (33.3) n (%) and 5 (33.3%) n (%)
  Lymphopenia, grade ≥3 TEAE: 2 (13.3%) n (%) and 2 (13.3) n (%)
  Metabolism and nutrition disorders (SOC), TEAE: 7 (46.7%) n (%)
  Muscle spasms, any grade TEAE: 1 (6.7) n (%)
  Musculoskeletal and connective tissue disorders (SOC), TEAE: 6 (40.0%) n (%)
  Musculoskeletal and connective tissue disorders (SOC), grade 3 or higher TEAE: 2 (13.3%) n (%)
  Nasopharyngitis, any grade TEAE: 5 (33.3) n (%) and 5 (33.3%) n (%)
  Nausea, any grade TEAE: 8 (53.5%) n (%) and 8 (53.3%) n (%) and 8 (53.3) n (%)
  Nervous system disorders (SOC), TEAE: 7 (46.7%) n (%)
  Neutropenia, grade ≥3 TEAE: 0 n (%)
  Oropharyngeal pain, TEAE: 2 (13.3%) n (%)
  Pain in extremity, any grade TEAE: 4 (26.7) n (%) and 4 (26.7%) n (%)
  Patients with a serious TEAE: 6 (40.0%) n (%)
  Peripheral edema, any grade TEAE: 1 (6.7) n (%) and 1 (6.7%) n (%)
  Pyrexia, any grade TEAE: 4 (26.7) n (%) and 4 (26.7%) n (%)
  Respiratory, thoracic and mediastinal disorders (SOC), TEAE: 6 (40.0%) n (%)
  Skin and subcutaneous tissue disorders (SOC), TEAE: 6 (40.0%) n (%)
  Vomiting, TEAE: 2 (13.3%) n (%)
PAVO Part 3
  Anemia, TEAE of Grade >3: 9.5%
  Serious TEAEs in SOC General disorders and administration site conditions: 4.8%
  TEAEs in SOC General disorders and administration site conditions: 71.4%
Total n=42
  Anemia, any grade TEAE: 7 (16.7) n (%) and 7 (16.7%) n (%)
  Anemia, grade ≥3 TEAE: 4 (9.5) n (%) and 4 (9.5%) n (%)
  Any grade ≥3 TEAE: 21 (50.0%) n (%) and 21 (50.0) n (%)
  Arthralgia, any grade TEAE: 10 (23.8) n (%) and 10 (23.8%) n (%)
  Asthenia, any grade TEAE: 7 (16.7) n (%) and 7 (16.7%) n (%)
  Back pain, TEAE: 6 (14.3%) n (%)
  Blood and lymphatic system disorders (SOC), TEAE: 11 (26.2%) n (%)
  Blood and lymphatic system disorders (SOC), grade 3 or higher TEAE: 8 (19.0%) n (%)
  Bone pain, TEAE: 7 (16.7%) n (%)
  Bone pain, grade ≥3 TEAE: 3 (7.1) n (%) and 3 (7.1%) n (%)
  Chills, TEAE: 5 (11.9%) n (%)
  Constipation, TEAE: 7 (16.7%) n (%)
  Cough, any grade TEAE: 7 (16.7) n (%) and 7 (16.7%) n (%)
  Decreased appetite, TEAE: 5 (11.9%) n (%)
  Diarrhea, any grade TEAE: 11 (26.2) n (%) and 11 (26.2%) n (%)
  Dizziness, any grade TEAE: 5 (11.9) n (%) and 5 (11.9%) n (%)
  Erythema, any grade TEAE: 6 (14.3) n (%) and 6 (14.3%) n (%)
  Fatigue, any grade TEAE: 9 (21.4) n (%) and 9 (21.4%) n (%)
  Gastrointestinal disorders (SOC), TEAE: 24 (57.1%) n (%)
  General disorders and administration site conditions (SOC), TEAE: 30 (71.4%) n (%)
  Headache, any grade TEAE: 7 (16.7) n (%) and 7 (16.7%) n (%)
  Lymphopenia, grade ≥3 TEAE: 3 (7.1) n (%) and 3 (7.1%) n (%)
  Metabolism and nutrition disorders (SOC), TEAE: 12 (28.6%) n (%)
  Muscle spasms, any grade TEAE: 4 (9.5) n (%)
  Musculoskeletal and connective tissue disorders (SOC), TEAE: 23 (54.8%) n (%)
  Musculoskeletal and connective tissue disorders (SOC), grade 3 or higher TEAE: 4 (9.5%) n (%)
  Nasopharyngitis, any grade TEAE: 11 (26.2) n (%) and 11 (26.2%) n (%)
  Nausea, any grade TEAE: 13 (31.0) n (%) and 13 (31.0%) n (%)
  Nervous system disorders (SOC), TEAE: 13 (31.0%) n (%)
  Neutropenia, grade ≥3 TEAE: 3 (7.1) n (%) and 3 (7.1%) n (%)
  Oropharyngeal pain, TEAE: 5 (11.9%) n (%)
  Pain in extremity, any grade TEAE: 8 (19.0) n (%) and 8 (19.0%) n (%)
  Patients who died during the study: 6 patients
  Patients with a grade 3/4 TEAE: 18 (42.9%) n (%)
  Patients with a serious TEAE: 16 (38.1%) n (%)
  Peripheral edema, any grade TEAE: 5 (11.9) n (%) and 5 (11.9%) n (%)
  Pyrexia, any grade TEAE: 9 (21.4) n (%) and 9 (21.4%) n (%)
  Respiratory, thoracic and mediastinal disorders (SOC), TEAE: 15 (35.7%) n (%)
  Skin and subcutaneous tissue disorders (SOC), TEAE: 11 (26.2%) n (%)
  Vomiting, TEAE: 6 (14.3%) n (%)
All cohorts, 1 in each cohort
  Patients who died due to progressive disease: 3 patients
